Molecular target: recombinant mouse integrin αvβ3 (R&D Systems, 7889-AV-050) (mouse) (UniProt P43406)
Test: SPR, mutant ICOSL immobilised, αvβ3 as analyte, 0.2 mM Ca2+ and 0.1 mM Mg2+, steady-state affinity fit

Sequence of recombinant mouse integrin αvβ3 (R&D Systems, 7889-AV-050) (mouse) (P43406 31-988 limits assumed, chain 1 of 2): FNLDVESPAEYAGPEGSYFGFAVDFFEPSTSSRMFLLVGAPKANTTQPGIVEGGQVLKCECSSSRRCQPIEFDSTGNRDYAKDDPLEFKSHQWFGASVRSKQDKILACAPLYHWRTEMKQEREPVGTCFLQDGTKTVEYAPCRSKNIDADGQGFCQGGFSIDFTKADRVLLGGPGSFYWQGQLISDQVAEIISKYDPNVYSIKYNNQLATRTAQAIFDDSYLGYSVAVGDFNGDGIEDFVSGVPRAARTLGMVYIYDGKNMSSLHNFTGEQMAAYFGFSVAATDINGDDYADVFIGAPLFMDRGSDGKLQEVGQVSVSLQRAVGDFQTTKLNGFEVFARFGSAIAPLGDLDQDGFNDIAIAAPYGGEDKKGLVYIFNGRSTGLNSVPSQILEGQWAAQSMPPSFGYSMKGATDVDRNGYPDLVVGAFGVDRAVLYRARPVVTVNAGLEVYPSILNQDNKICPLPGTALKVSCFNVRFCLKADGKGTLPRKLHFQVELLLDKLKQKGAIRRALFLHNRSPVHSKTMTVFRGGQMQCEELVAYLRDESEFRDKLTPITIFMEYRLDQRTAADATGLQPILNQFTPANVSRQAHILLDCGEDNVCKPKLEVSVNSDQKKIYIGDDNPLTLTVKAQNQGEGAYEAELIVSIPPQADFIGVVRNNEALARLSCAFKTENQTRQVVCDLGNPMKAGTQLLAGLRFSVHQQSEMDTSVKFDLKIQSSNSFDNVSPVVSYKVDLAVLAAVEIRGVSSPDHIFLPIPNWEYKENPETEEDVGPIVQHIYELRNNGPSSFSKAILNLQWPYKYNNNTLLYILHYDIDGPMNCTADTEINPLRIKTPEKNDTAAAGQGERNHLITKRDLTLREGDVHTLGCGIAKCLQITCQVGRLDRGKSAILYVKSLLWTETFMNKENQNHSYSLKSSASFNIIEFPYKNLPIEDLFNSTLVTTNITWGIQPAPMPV
Sequence of recombinant mouse integrin αvβ3 (R&D Systems, 7889-AV-050) (mouse) (O54890 26-717 limits assumed, chain 2 of 2, further chain): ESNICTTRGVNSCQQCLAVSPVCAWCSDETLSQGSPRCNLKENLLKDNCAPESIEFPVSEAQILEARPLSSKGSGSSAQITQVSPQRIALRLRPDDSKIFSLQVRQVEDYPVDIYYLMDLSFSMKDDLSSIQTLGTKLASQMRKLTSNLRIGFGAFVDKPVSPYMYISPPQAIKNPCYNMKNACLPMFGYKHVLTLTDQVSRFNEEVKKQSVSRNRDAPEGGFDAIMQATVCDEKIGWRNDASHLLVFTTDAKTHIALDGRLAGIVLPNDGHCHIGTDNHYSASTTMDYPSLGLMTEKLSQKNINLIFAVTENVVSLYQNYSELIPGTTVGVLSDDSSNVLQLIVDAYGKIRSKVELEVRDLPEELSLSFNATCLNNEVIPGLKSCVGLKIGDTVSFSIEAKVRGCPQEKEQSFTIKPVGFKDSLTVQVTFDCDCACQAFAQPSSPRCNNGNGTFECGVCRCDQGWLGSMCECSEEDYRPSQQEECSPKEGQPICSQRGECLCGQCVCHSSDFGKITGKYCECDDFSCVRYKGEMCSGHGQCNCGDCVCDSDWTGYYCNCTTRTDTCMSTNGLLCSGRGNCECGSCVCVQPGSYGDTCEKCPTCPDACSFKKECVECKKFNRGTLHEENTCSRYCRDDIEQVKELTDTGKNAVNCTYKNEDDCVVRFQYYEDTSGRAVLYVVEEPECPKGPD

“RGD-mutated mouse ICOSL protein (RGD motif replaced with AAA) (from UniProt Q9JHJ8 44-322) (ligand)” showed a Kd of 830 µM.
